# Experimental data reported in patent US7528106B2, “Compositions and methods for treatment of neovascular diseases” (The Scripps Research Institute, priority 2004, dated 2009).
# B1: T2-TrpRS: 43 kDa angiostatic T2 fragment of human tryptophanyl-tRNA synthetase, SEQ ID NO: 1 (protein)
# chain: MSAKGIDYDKLIVRFGSSKIDKELINRIERATGQRPHHFLRRGIFFSHRDMNQVLDAYENKKPFYLYTGRGPSSEAMHVGHLIPFIFTKWLQDVFNVPLVIQMTDDEKYLWKDLTLDQAYSYAVENAKDIIACGFDINKTFIFSDLDYMGMSSGFYKNVVKIQKHVTFNQVKGIFGFTDSDCIGKISFPAIQAAPSFSNSFPQIFRDRTDIQCLIPCAIDQDPYFRMTRDVAPRIGYPKPALLHSTFFPALQGAQTKMSASDPNSSIFLTDTAKQIKTKVNKHAFSGGRDTIEEHRQFGGNCDVDVSFMYLTFFLEDDDKLEQIRKDYTSGAMLTGELKKALIEVLQPLIAEHQARRKEVTDEIVKEFMTPRKLSFDFQ
# modifications: homo sapiens
# Test system: deep retinal vascular network formation in neonatal Balb/C mice
# Test: Neonatal mouse retinal angiogenesis model
# Format: in vivo
# Conditions: for % of eyes with 75-100% inhibition of deep vascular layer / % of eyes with 0-10% inhibition of deep vascular layer / % of eyes with 10-25% inhibition of deep vascular layer / % of eyes with 25-50% inhibition of deep vascular layer / % of eyes with 50-75% inhibition of deep vascular layer: intravitreal P4, read P12
# Excerpt: Description of the Model. Immediately after birth (postnatal day zero; “P0”), retinal vasculature is virtually absent in the mouse. By four weeks after birth (P28) the retina has attained an adult pattern of retinal vessels coincident with the onset of vision. Physiological neovascularization of the retina occurs during this period via a stereotypical, biphasic developmental pattern of angiogenesis. During the primary phase of retinal vascular development, spoke-like peripapillary vessels grow radially from the central retinal artery and vein, becoming progressively interconnected by a capillary plexus that forms between them. This “inner retinal plexus” grows in area, volume and complexity, centrifugally, as a monolayer within the nerve fiber layer during the first seven to ten days following birth.
# The second phase of retinal vessel formation begins between postnatal days 7 (P7) and 10 (P10) when collateral branches sprout from capillaries of the superficial plexus and penetrate into the retina where their tips branch and anastamose laterally to form a planar “deep vascular plexus”. While the deep vascular plexus is in place by P14, it undergoes extensive remodeling from P14 to P21. It is of interest to note that the formation of these vascular networks in the neonatal mouse are strikingly similar to the events occurring in the third trimester human fetus.
# Advantages and Quantification of the Model. The reproducibility of the murine retinal development process and its easy accessibility in neonatal animals provide an opportunity to assess the efficacy of antiangiogenic compounds in a physiologically relevant model of angiogenesis. Additional advantages of the neonatal mouse model are the ability to qualitatively and quantitatively evaluate the angiostatic effect of putative antagonists of angiogenesis. Angiostatic activity was evaluated based upon the degree of angiogenesis in the deep, outer retinal vascular layer (secondary layer) that develops between P8 and P12. The appearance of the inner blood vessel network (primary layer) was evaluated for normal development and signs of toxicity.
# Preparation of Compositions. Peptidomimetic integrin signaling inhibitor Compound (1) is solubilized in PBS at a concentration of about 20 mg/ml in PBS (1× concentration). T2-TrpRS is solubilized in PBS at a concentration of about 0.5 mg/ml (1× concentration). VEGF aptamer (pegaptanib sodium; Compound (2)) is solubilized in PBS at a concentration of about 2 mg/ml (1× concentration) to achieve an injection of approximately 1 μg/eye at 1× concentration. For all combination assays the compounds were prepared at 2 or 3 times the 1× concentration of each material and then combined to produce a final solution containing each individual compound at the same concentration as was used alone (e.g., 1×, 0.5×, 0.25× or 0.1×, as the case may be). For all assays, a single injection of 0.5 μl of PBS solutions of the drugs was administered intravitreally regardless of the number of compounds being injected. As used herein, the term “0.1×” refers to one tenth of the 1× concentration of a given material, “0.25×” refers to one quarter of the 1× concentration of a given material, “0.5×” refers to one half of the 1× concentration of a given material, and so forth for similar designations.
# An in vivo angiogenesis assay in the neonatal mouse (Balb/C, The Jackson Laboratory, Bar Harbor, Me.) was used to evaluate the angiostatic activity of integrin signaling inhibitor Compound (1), T2-TrpRS, and VEGF aptamer Compound (2). Intravitreous injection and retina isolation was performed with a dissecting microscope (SMZ 645, Nikon, Japan). […] The samples (0.5 μl) were injected with a Hamilton syringe fitted with a 32-gauge needle (Hamilton Company, Reno, Nev.). The injection was made between the equator and the corneal limbus. During injection, the location of the needle tip was monitored by direct visualization to determine that it was in the vitreal cavity. […]
# [1] = Table 12, composite data from the Examples, 1× (Compound (2) 0.5× to 1×)
# [2] = Table 13A, 0.25 μg per eye, intravitreal P7, read P12
# [3] = Table 13C low dosing, 0.1x (integrin ant. 1.0 μg, VEGF apt. 0.20 μg, T2-TrpRS 0.025 μg)
molecule,measurement,setting,value
B1,% of eyes with 75-100% inhibition of deep vascular layer,"Ex 10, 0.3× (1×=0.5 mg/ml)",25%
same,% of eyes with 0-10% inhibition of deep vascular layer,"Ex 10, 1× (0.5 mg/ml)",8.3%
same,% of eyes with 10-25% inhibition of deep vascular layer,"Ex 10, 1× (0.5 mg/ml)",16.7%
same,% of eyes with 25-50% inhibition of deep vascular layer,"Ex 10, 1× (0.5 mg/ml)",25%
same,% of eyes with 50-75% inhibition of deep vascular layer,"Ex 10, 1× (0.5 mg/ml)",8.7%
same,% of eyes with 75-100% inhibition of deep vascular layer,"Ex 10, 1× (0.5 mg/ml)",41.7%
same,% of eyes with 0-10% inhibition of deep vascular layer,"Ex 10, 2× (1×=0.5 mg/ml)",8.3%
same,% of eyes with 10-25% inhibition of deep vascular layer,"Ex 10, 2× (1×=0.5 mg/ml)",25%
same,% of eyes with 25-50% inhibition of deep vascular layer,"Ex 10, 2× (1×=0.5 mg/ml)",0%
same,% of eyes with 50-75% inhibition of deep vascular layer,"Ex 10, 2× (1×=0.5 mg/ml)",16.7%
same,% of eyes with 75-100% inhibition of deep vascular layer,"Ex 10, 2× (1×=0.5 mg/ml)",41.7%
same,% of eyes with 0-10% inhibition of deep vascular layer,"Ex 10, 3× (1×=0.5 mg/ml)",66.7%
same,% of eyes with 10-25% inhibition of deep vascular layer,"Ex 10, 3× (1×=0.5 mg/ml)",25%
same,% of eyes with 25-50% inhibition of deep vascular layer,"Ex 10, 3× (1×=0.5 mg/ml)",8.7%
same,% of eyes with 50-75% inhibition of deep vascular layer,"Ex 10, 3× (1×=0.5 mg/ml)",0%
same,% of eyes with 75-100% inhibition of deep vascular layer,"Ex 10, 3× (1×=0.5 mg/ml)",0%
same,% of eyes with 0-10% inhibition of deep vascular layer,"Ex 11, 0.3× (1×=0.5 mg/ml)",33.3%
same,% of eyes with 10-25% inhibition of deep vascular layer,"Ex 11, 0.3× (1×=0.5 mg/ml)",16.7%
same,% of eyes with 25-50% inhibition of deep vascular layer,"Ex 11, 0.3× (1×=0.5 mg/ml)",0%
same,% of eyes with 50-75% inhibition of deep vascular layer,"Ex 11, 0.3× (1×=0.5 mg/ml)",0%
same,% of eyes with 75-100% inhibition of deep vascular layer,"Ex 11, 0.3× (1×=0.5 mg/ml)",50%
same,% of eyes with 0-10% inhibition of deep vascular layer,"Ex 11, 1× (0.5 mg/ml)",14.3%
same,% of eyes with 10-25% inhibition of deep vascular layer,"Ex 11, 1× (0.5 mg/ml)",14.3%
same,% of eyes with 25-50% inhibition of deep vascular layer,"Ex 11, 1× (0.5 mg/ml)",7.1%
same,% of eyes with 50-75% inhibition of deep vascular layer,"Ex 11, 1× (0.5 mg/ml)",14.3%
same,% of eyes with 75-100% inhibition of deep vascular layer,"Ex 11, 1× (0.5 mg/ml)",50%
same,% of eyes with 0-10% inhibition of deep vascular layer,"Ex 11, 2× (1×=0.5 mg/ml)",12.5%
same,% of eyes with 10-25% inhibition of deep vascular layer,"Ex 11, 2× (1×=0.5 mg/ml)",12.5%
same,% of eyes with 25-50% inhibition of deep vascular layer,"Ex 11, 2× (1×=0.5 mg/ml)",12.5%
same,% of eyes with 50-75% inhibition of deep vascular layer,"Ex 11, 2× (1×=0.5 mg/ml)",12.5%
same,% of eyes with 75-100% inhibition of deep vascular layer,"Ex 11, 2× (1×=0.5 mg/ml)",50%
same,% of eyes with 0-10% inhibition of deep vascular layer,"Ex 11, 3× (1×=0.5 mg/ml)",14.3%
same,% of eyes with 10-25% inhibition of deep vascular layer,"Ex 11, 3× (1×=0.5 mg/ml)",14.3%
same,% of eyes with 25-50% inhibition of deep vascular layer,"Ex 11, 3× (1×=0.5 mg/ml)",14.3%
same,% of eyes with 50-75% inhibition of deep vascular layer,"Ex 11, 3× (1×=0.5 mg/ml)",28.5%
same,% of eyes with 75-100% inhibition of deep vascular layer,"Ex 11, 3× (1×=0.5 mg/ml)",28.5%
same,% of eyes with 0-10% inhibition of deep vascular layer,"Ex 11, 5× (1×=0.5 mg/ml)",16.6%
same,% of eyes with 10-25% inhibition of deep vascular layer,"Ex 11, 5× (1×=0.5 mg/ml)",33.3%
same,% of eyes with 25-50% inhibition of deep vascular layer,"Ex 11, 5× (1×=0.5 mg/ml)",33.3%
same,% of eyes with 50-75% inhibition of deep vascular layer,"Ex 11, 5× (1×=0.5 mg/ml)",16.6%
same,% of eyes with 75-100% inhibition of deep vascular layer,"Ex 11, 5× (1×=0.5 mg/ml)",0%
same,"mice having 75-100% inhibition in the deep vascular layer, maximum over doses","Examples 10 and 11, 0.1× to 5×",≤ 50%
same,% of mice with 0-10% inhibition of deep vascular layer,[1],23.9%
same,% of mice with 10-25% inhibition of deep vascular layer,[1],17.4%
same,% of mice with 25-50% inhibition of deep vascular layer,[1],15.2%
same,% of mice with 50-75% inhibition of deep vascular layer,[1],8.7%
same,% of mice with 75-100% inhibition of deep vascular layer,[1],34.8%
same,% of mice with 100% inhibition of deep vascular layer,[1],2.2%
same,% of mice with >95% inhibition of deep vascular layer,[1],8.7%
same,Percentage of retinas with 0-10% neovascular inhibition,[2],23.9%
same,Percentage of retinas with 10-25% neovascular inhibition,[2],17.4%
same,Percentage of retinas with 25-50% neovascular inhibition,[2],15.2%
same,Percentage of retinas with 50-75% neovascular inhibition,[2],8.7%
same,Percentage of retinas with 100% neovascular inhibition,[2],2.2%
same,Percentage of retinas with >75% neovascular inhibition,[2],34.8%
same,Percentage of retinas with >90% neovascular inhibition,[2],8.7%
same,Percentage of retinas with 0-10% neovascular inhibition,[3],50%
same,Percentage of retinas with 10-25% neovascular inhibition,[3],37.5%
same,Percentage of retinas with 25-50% neovascular inhibition,[3],12.5%
same,Percentage of retinas with 50-75% neovascular inhibition,[3],0%
same,Percentage of retinas with 100% neovascular inhibition,[3],0%
same,Percentage of retinas with >75% neovascular inhibition,[3],0%
same,Percentage of retinas with >90% neovascular inhibition,[3],0%
same,"retinas that developed a normal, complete deep vascular plexus",monotherapy at optimal dose,24%
same,retinas that exhibited over 75% inhibition,monotherapy at optimal dose,35%
same,efficacy at the 95-100% inhibition level,"with increasing dosages, Examples 10 and 11",≤ 50%
